Experimental data taken from publication PMC11507936.

Molecular target: non-structural protein 3 (Nsp3) ubiquitin-like domain 1 (Ubl1), 1-111

## Nucleocapsid protein (N) (from UniProt P0DTC9)
  other: partition coefficient: weaker; reference 12.6 ± 0.1
